The Human Domainome abundance scans (Beltran et al. 2025)

B1: Neutrophil cytosol factor 2, residues 456 to 514; numbered along this chain, P19878 (parent)
chain: LKKGSQVEALFSYEATQPEDLEFQEGDIILVLSKVNEEWLEGECKGKVGIFPKVFVEDC

Variants of: B1
Assay: abundance fitness (aPCA) (normalised: wild type 0, dead -1); higher = more abundant; growth selection in yeast, the domain comes from the species named
Details: Homo sapiens

Abundance fitness: each site, then its substitutions
I50: G -0.347; A -0.213; H -0.371; D -0.306; Y -0.208; K 0.108; C -0.4; R -0.125; Q -0.659; V -0.298; N -0.821; E -0.58; M -0.621; S -0.448; F -0.389; P 0.096
K45: W -0.125; C -0.191; H 0.232; F -0.669; S -0.691; Y -0.505; E -0.905; D 0.065; P -0.904; Q -0.577; A -0.765; V -0.734; T -0.562; I -0.937; N 0.203; G -0.61; R 0.012
E43: K -0.235; F -0.324; S 0.025; P -0.818; W -0.435; R -0.521; T -0.163; L -0.487; N -0.758; Q -0.078; I -0.567; H -0.314; M -0.009; V -0.654; A -0.035; C -0.685; G -0.152
F51: R -0.716; M 0.006; S -0.328; C -0.247; V -0.342; A -0.63; Y -0.359; W -0.739; T -0.165; E 0.113; G -0.425; L -0.735; H -0.18; I -0.506; N -0.584; P -0.924
E41: M 0.275; Q 0.238; L 0.275; A -0.394; W -0.267; N -0.635; H -0.682; K 0.367; S -0.28; V -0.02; C 0.14; T -0.527; G -0.157; Y 0.47; R 0.131; I 0.175; F 0.248
E37: S -0.527; R -0.22; Y -0.345; T -0.171; V 0.085; W -0.279
G46: A -0.313; T -0.904; W -0.346; D -0.703; H -0.84; R -0.392; K -0.732; L -0.226; Y -0.352; C -0.479; V -0.585; M -0.599; E -0.189; S -0.928; P -0.747; I -0.615; N 0.219
E38: I -0.097; V -0.479; A -0.329; N -0.131; D 0.028; K -0.649; P -0.496; R -0.941; H -0.362; C -0.702; W -0.396; G -0.207; Y -0.266; S -0.701
F55: P -0.145; C 0.597; I -0.599; H -0.229; G -0.486; E -0.821; K -0.584; S -0.753; N -0.522; V 0.271; W -0.529; Y 0.152; D -0.409; M 0.111; L 0.207; R -0.521; A 0.034; T -0.133
V54: I -0.079; R 0.625; Q 0.298; H 0.425; G -0.209; C 0.378; M 0.378; L -0.434; P -0.459; T 0.18; D 0.049; F -0.203; E -0.124; A 0.431; K 0.663; Y -0.03; W -0.438
G42: T -0.876; E -0.237; A -0.146; C -0.782; Q -0.637; F -0.509; M -0.954; R -0.952; L -0.569; Y -0.466; K -0.768; I -0.473; V -0.748; N -0.484; W -0.322; D -0.803; P -0.375
P52: R -0.918; W -0.953; F -0.459; I -0.766; Y -0.738; T -0.341; V -0.598; D -0.479; K -0.559; G -0.215; E -0.642; L -0.094; M -0.253; S -0.585; A -0.305; Q -0.645; C -0.51
E57: C -0.15; G 0.005; I -0.697; H -0.084; D -0.254; F -0.607
V56: F -0.255; R -0.637; E -0.415; I -0.81; H -0.624; W -0.46; N -0.439; G -0.713; A -0.719; K -0.637; D -0.412; L -0.589; P -1.09; Y -0.574; T -0.457; Q -0.581; C -0.52
C44: D -0.557; M 0.102; G -0.383; R -0.336; H -0.806; W -0.182; I -0.705; A -0.241; T -0.467; N -0.924; E -0.865; F -0.741; V -0.455; K -0.574; P -0.583; L -0.35; Y -0.478
G49: N -0.735; V -1.05; Y -0.503; T -0.951; A -0.59; P -0.722; K 0.002; H -0.893; E -0.63; R -0.758; F -0.469; L -0.42; M -0.075; C -0.756; I -0.427; D -0.478; W -0.137
K53: T -0.707; F -0.857; W -0.808; V -0.536; G 0.02; I -0.865; C -0.848; D -0.61; H -0.928; A -0.246; R 0.195; M -0.549; S -0.39; L -0.749; P -0.716; Y -0.722; E -0.353; N -0.378
V48: I -0.138; G -0.387; Y -0.17; S -0.355; T -0.031; R 0.68; F -0.505; A 0.008; N -0.334; W -0.901; C -0.392; L -0.706; K 0.295; P -1.04; D -0.443; E -0.974
K47: P -0.806; S -0.22; V -0.331; T -0.284; F -0.241; C -0.658; W -0.416; R -0.118; H -0.673; M -0.924; I -0.642; Y -0.742; A -1.04; Q -0.856; E -0.822; D -0.858; G -0.511; L -0.361; N -0.271
W39: T -0.735; F -0.49; Y -0.321; D -0.598; S -0.666; G -0.414; Q -0.864; E -0.269; N -0.196; L -0.8; I -0.109; C -0.379; R -0.893; P -0.598; H -1.03; A -0.643; M 0.036
L40: D -0.544; V -0.451; F -0.548; M -0.042; I -0.183; P -0.02; S -0.729; N -0.945; H -0.764; C -0.614; Q -0.58; R -0.217; T -0.749; A -0.731; Y 0.528; W -0.277; K -0.918; E -0.742
